Measured values from patent US20190194350A1 (UNIVERSITAT STUTTGART, published 2019).
Where “and” joins values, the source holds several entries; their conditions need not be identical. Identical values can stand only once.

B1: IgG 2-35 (antibody, V domains shown)
VH: QMQLVQSGAEVKKPGESLKISCKGSGYSFTSYWIGWVRQMPGKGLEWMGIIYPGDSDTRYSPSFQGQVTISADKSISTAYLQWSSLKASDTAMYYCARLGRSGSYYNYGMDVWGQGTTVTVSS
VL: QAVVTQEPSFSVSPGGTVTLTCGLSSGSVSSSYYPSWYQQTSGQPPRTLIYSTDTRSSGVPDRFSGSILGDKAALTITGAQADDESDYYCMLYMGSGISVFGGGTKLAVL
notes: Anti-HER2 antibody found by phage display
B2: scDb 3-43xCD3 (bispecific antibody)
chain: QLQQSGPGLVKPSQTLSLTCAISGDSVSSNRAAWNWIRQSPSRGLEWLGRTYYRSKWYNDYAQSLKSRITINPDTPKNQFSLQLNSVTPEDTAVYYCARDGQLGLDALDIWGQGTMVTVSSGGGGSDIQMTQSPSSLSASVGDRVTITCRASQDIRNYLNWYQQKPGKAPKLLIYYTSRLHSGVPSRFSGSGSGTDFTFTISSLQPEDIATYYCQQGNTLPWTFGQGTKLEIKRGGGGSGGGGSGGGGSQVQLVQSGAEVKKPGSSVKVSCKASGGTFSGYTMNWVRQAPGQGLEWMGLINPYKGVSTYNGKFKDRVTITADKSTSTAYMELSSLRSEDTAVYYCARSGYYGDSDWYFDVWGQGTLVTVSSGGGGSQAGLTQPPAVSVAPGQTASITCGRDNIGSRSVHWYQQKPGQAPVLVVYDDSDRPAGIPERFSGSNYENTATLTISRVEAGDEADYYCQVWGITSDHVVFGGGTKLTVLAAAHHHHHH
notes: also called scDb3-43xhuU3
B3: scDb3-43xCD3-scFv3-43 (bispecific antibody)
chain: QLQQSGPGLVKPSQTLSLTCAISGDSVSSNRAAWNWIRQSPSRGLEWLGRTYYRSKWYNDYAQSLKSRITINPDTPKNQFSLQLNSVTPEDTAVYYCARDGQLGLDALDIWGQGTMVTVSSGGGGSDIQMTQSPSSLSASVGDRVTITCRASQDIRNYLNWYQQKPGKAPKLLIYYTSRLHSGVPSRFSGSGSGTDFTFTISSLQPEDIATYYCQQGNTLPWTFGQGTKLEIKRGGGGSGGGGSGGGGSQVQLVQSGAEVKKPGSSVKVSCKASGGTFSGYTMNWVRQAPGQGLEWMGLINPYKGVSTYNGKFKDRVTITADKSTSTAYMELSSLRSEDTAVYYCARSGYYGDSDWYFDVWGQGTLVTVSSGGGGSQAGLTQPPAVSVAPGQTASITCGRDNIGSRSVHWYQQKPGQAPVLVVYDDSDRPAGIPERFSGSNYENTATLTISRVEAGDEADYYCQVWGITSDHVVFGGGTKLTVLAAAGGSGGGGSGGGTQVQLQQSGPGLVKPSQTLSLTCAISGDSVSSNRAAWNWIRQSPSRGLEWLGRTYYRSKWYNDYAQSLKSRITINPDTPKNQFSLQLNSVTPEDTAVYYCARDGQLGLDALDIWGQGTMVTVSSGGGGSGGGGSGGGGSQAGLTQPPAVSVAPGQTASITCGRDNIGSRSVHWYQQKPGQAPVLVVYDDSDRPAGIPERFSGSNYENTATLTISRVEAGDEADYYCQVWGITSDHVVFGGGTKLTVLGSLHHHHHH
notes: Trivalent: two sites for HER3, one for CD3; also called scDb-scFv; scDb3-43xhuU3-scFv3-43
B4: scFv 3-43 (scFv)
scFv: QVQLQQSGPGLVKPSQTLSLTCAISGDSVSSNRAAWNWIRQSPSRGLEWLGRTYYRSKWYNDYAQSLKSRITINPDTPKNQFSLQLNSVTPEDTAVYYCARDGQLGLDALDIWGQGTMVTVSSGGGGSGGGGSGGGGSQAGLTQPPAVSVAPGQTASITCGRDNIGSRSVHWYQQKPGQAPVLVVYDDSDRPAGIPERFSGSNYENTATLTISRVEAGDEADYYCQVWGITSDHVVFGGGTKLTVLG

Tests used:
[1] = target: T1, HER2-ECD protein (UniProt P04626 23-652, limits assumed); test: ELISA, immobilized HER2-ECD
T1 construct: extracellular domain

[2] = target: T2, HER3 on HER3-expressing tumor cells (human, UniProt P21860 20-1342); test: cell-based or functional assay
[3] = target: T2, HER3 on HER3-expressing tumor cells; test: flow cytometry, HER3-expressing MCF-7 cells
Experimental: (§1) For the adherent MCF-7, cells were shortly trypsinized at 37° C., trypsin was quenched with FCS containing medium and removed by centrifugation. For both cell lines, Jurkat and MCF-7, 100,000 cells per well were seeded and incubated with a titration of the different bispecific and multivalent antibodies in PBA (2% (v/v) FCS, 0.02% (w/v) NaN₃ in 1×PBS) for one hour at 4° C. Washing was performed twice with PBA. Bound protein was detected using PE-conjugated anti-His antibody incubated for another hour at 4° C. After washing, fluorescence was measured with a MACSQuant® Analyzer 10. Relative median fluorescence intensities (to unstained cells) were calculated using the MACSQuant® software.

[4] = target: T3, CD3 on CD3-expressing Jurkat cells (human, UniProt P07766 23-207); test: flow cytometry, CD3-expressing Jurkat cells
T3 construct: whole, on cells; also called human CD3
T3 sequence (P07766 23-207): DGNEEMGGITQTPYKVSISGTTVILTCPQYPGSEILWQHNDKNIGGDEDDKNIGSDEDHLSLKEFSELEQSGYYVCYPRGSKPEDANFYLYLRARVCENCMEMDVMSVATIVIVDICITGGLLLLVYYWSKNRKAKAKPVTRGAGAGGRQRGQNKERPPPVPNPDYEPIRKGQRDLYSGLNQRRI
Experimental: For the adherent MCF-7, cells were shortly trypsinized at 37° C. and trypsin was quenched with FCS containing medium and removed by centrifugation. […] Washing was performed twice with PBA. Bound protein was detected using PE-conjugated anti-His antibody incubated for another hour at 4° C. After washing, fluorescence was measured with a MACSQuant® Analyzer 10. Relative median fluorescence intensities (to unstained cells) were calculated using the MACSQuant® software.
For the adherent MCF-7, cells were shortly trypsinized at 37° C. and trypsin was quenched with FCS containing medium and removed by centrifugation. For both, MCF-7 and Jurkat, 100,000 cells per well were seeded and incubated with a titration of scDb-scFv in PBA (2% (v/v) FCS, 0.02% (w/v) NaN3 in 1×PBS) for one hour at 4° C. Washing was performed twice with PBA. Bound protein was detected using PE-conjugated anti-His antibody incubated for another hour at 4° C. After washing, fluorescence was measured with a MACSQuant® Analyzer 10. Relative median fluorescence intensities (to unstained cells) were calculated using the MACSQuant® software.

[5] = target: T4, HER3-Fc fusion comprising the extracellular domain (aa 27-599) of human HER3 (human, UniProt P21860 27-599); test: ELISA, coated HER3-Fc (aa 27-599), anti-His-HRP
T4 construct: also called HER3-Fc fusion protein; not shown: Fc part

[6] = target: T3, CD3 on CD3-expressing Jurkat cells; test: flow cytometry, CD3-positive Jurkat cells
Experimental: as §1

[7] = target: T5, mouse HER3-Fc fusion protein (extracellular region of mouse HER3 fused to a human Fc region) (mouse, UniProt Q61526 20-641); test: ELISA, immobilized mouse HER3 extracellular region fused to human Fc, scFv detected with anti-His-tag antibody
T5 construct: extracellular domain; not shown: human Fc region
T5 sequence (Q61526 20-641): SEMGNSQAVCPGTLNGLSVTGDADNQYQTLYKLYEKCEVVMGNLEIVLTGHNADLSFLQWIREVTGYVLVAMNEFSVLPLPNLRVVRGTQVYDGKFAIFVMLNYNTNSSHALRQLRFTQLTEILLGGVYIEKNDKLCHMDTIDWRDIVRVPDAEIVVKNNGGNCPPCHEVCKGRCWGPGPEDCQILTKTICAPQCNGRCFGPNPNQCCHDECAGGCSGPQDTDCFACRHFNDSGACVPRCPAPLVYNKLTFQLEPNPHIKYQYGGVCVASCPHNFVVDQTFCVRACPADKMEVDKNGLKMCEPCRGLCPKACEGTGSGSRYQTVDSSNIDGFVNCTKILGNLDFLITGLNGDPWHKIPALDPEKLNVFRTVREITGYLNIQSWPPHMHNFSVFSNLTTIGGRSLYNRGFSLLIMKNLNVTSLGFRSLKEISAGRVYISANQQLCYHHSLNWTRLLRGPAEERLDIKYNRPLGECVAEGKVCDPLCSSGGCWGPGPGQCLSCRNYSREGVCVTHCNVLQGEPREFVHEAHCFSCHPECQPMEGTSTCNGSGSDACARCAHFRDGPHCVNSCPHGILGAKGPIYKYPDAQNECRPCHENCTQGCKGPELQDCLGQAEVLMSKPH

Row | Binder | EC50 [1] [nM] | IL-2 release of PBMC with HER3-expressing Colo205 cells (EC50) [2] [nM] | IL-2 release of PBMC with HER3-expressing MCF-7 cells (EC50) [2] [nM] | killing of MCF-7 cells by PBMC, MTT assay (EC50) [2] [nM] | EC50 [3] | EC50 [4] [nM] | EC50 [5] | EC50 [6] [nM] | binding result [7]
1 | B1 | ~1.5 |  |  |  |  |  |  |  | 
2 | B2 |  | 0.3 | 0.48 | 0.084 | 1.1 nM | 3.1 | 3.3 nM and 4.87 nM | 2.4 | 
3 | B3 |  |  | 0.29 | 0.034 | 0.0316 nM and 0.0314 nM | 13.2 | 0.81 nM | 4.2 | 
4 | B4 |  |  |  |  |  |  |  |  | binds
